Measurements reported in US11198713B2, “Agents modulating beta-catenin functions and methods thereof” (FOG PHARMACEUTICALS, INC., priority 2017, dated 2021).
Numbered stars: 1 amine (or outer) side, 2 acyl side, 3 side chain; on linkers, the order of the positions; unused ones are H or OH. Bridge positions count the residues as written; N and C are the ends. Square brackets hold non-standard residues; d marks the D form. Primed or numbered codes have the meaning given here. MB(10) = Monomer B = PyrS, pyrrolidine stapling residue with allyl carbamate, (S)-3-amino-1-(allyloxycarbonyl)pyrrolidine-3-carboxylic acid, C=CCOC(=O)N1CC[C@@](N[*:1])(C(=O)[*:2])C1; MB(9) = Monomer B (PyrS), pyrrolidine stapling residue with N-allyloxycarbonyl (Alloc), forms a carbamate staple with R8 by olefin metathesis; 2Pal = N[C@@H](Cc1ccccn1)C(=O)O; R8 = C=CCCCCCC[C@@](C)(N)C(=O)O

T1: full-length beta-catenin (Axin site) (Homo sapiens, UniProt P35222)
T1 construct: 15 nM full-length beta-catenin, 20 nM FITC labeled peptide in buffer
T1 sequence (P35222 1-781): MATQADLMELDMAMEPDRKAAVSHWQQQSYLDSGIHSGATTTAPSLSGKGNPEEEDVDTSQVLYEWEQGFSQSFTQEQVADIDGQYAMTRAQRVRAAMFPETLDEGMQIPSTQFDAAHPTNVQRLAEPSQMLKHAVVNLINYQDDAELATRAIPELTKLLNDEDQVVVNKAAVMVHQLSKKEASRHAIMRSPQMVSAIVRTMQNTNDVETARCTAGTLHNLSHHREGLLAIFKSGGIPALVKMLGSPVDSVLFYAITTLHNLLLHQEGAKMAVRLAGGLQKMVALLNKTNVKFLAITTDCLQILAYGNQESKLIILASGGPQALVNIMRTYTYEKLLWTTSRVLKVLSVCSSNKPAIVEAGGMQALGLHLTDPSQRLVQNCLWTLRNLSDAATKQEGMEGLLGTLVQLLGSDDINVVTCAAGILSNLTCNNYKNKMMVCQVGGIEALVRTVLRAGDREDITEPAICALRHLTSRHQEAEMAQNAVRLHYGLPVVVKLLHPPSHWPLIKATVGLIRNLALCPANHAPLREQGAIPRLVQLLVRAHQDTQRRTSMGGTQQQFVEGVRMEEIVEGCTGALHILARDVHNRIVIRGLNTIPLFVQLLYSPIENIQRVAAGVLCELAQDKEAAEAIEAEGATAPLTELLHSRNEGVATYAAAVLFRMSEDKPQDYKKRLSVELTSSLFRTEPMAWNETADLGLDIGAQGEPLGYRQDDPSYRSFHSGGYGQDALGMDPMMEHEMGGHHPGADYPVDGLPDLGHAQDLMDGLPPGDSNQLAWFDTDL

T2: full-length beta-catenin (UniProt P35222 2-781, limits assumed)
T2 construct: mature; also called full-length ß-Catenin; β-catenin
T2 sequence (looked up): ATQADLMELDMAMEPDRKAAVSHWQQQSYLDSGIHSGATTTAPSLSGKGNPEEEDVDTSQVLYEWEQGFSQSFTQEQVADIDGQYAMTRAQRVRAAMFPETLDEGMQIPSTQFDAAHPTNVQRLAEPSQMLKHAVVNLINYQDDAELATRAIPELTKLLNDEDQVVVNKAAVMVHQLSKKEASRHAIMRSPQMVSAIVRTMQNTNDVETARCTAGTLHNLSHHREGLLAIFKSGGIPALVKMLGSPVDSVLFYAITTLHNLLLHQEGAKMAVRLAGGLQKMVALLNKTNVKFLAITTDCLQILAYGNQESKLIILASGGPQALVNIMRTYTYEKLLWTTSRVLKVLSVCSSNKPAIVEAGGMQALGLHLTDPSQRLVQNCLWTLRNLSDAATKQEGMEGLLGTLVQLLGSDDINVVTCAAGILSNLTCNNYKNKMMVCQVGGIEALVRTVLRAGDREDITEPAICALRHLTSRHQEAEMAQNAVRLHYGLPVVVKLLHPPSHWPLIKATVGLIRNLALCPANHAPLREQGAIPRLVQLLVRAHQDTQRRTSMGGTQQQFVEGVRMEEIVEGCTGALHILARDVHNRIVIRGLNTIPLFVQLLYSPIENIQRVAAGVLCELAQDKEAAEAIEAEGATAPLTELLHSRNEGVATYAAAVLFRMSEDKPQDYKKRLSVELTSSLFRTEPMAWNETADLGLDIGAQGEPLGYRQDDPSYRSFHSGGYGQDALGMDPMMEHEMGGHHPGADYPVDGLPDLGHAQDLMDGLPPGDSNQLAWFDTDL


target: T1, full-length beta-catenin (Axin site); assay: Competition fluorescence polarization assay (Axin site probe); format: binding; conditions: competition fluorescence polarization, Table 2; read-out: in vitro FP EC50
Summary of the method: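 Competition FP: 15 nM full-length β-catenin pre-incubated 5 min with 20 nM FITC-labelled stapled Axin-site peptide, then titrated peptide added (3-fold series from 5 μM) for 15 min in the dark. Buffer 50 mM Tris pH 8.0, 250 mM NaCl, 2% glycerol, 0.5 mM EDTA; duplicate reads.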

| Molecule | EC50 |
| --- | --- |
| CC[C@H](C)[C@@H]1NC(=O)[C@H](Cc2c[nH]cn2)NC(=O)[C@H](C)NC(=O)[C@H](CC(=O)O)NC(=O)[C@H](CC(C)C)NC(=O)[C@H]([C@@H](C)CC)NC(=O)[C@](C)(NC(=O)[C@H](C)NC(C)=O)CCCCCCC=CCOC(=O)N2CC[C@@](C(=O)N[C@@H](CCCNC(=N)N)C(=O)N[C@@](C)(CC(C)C)C(=O)N[C@@H](Cc3c[nH]c4ccccc34)C(N)=O)(C2)NC1=O [FP0633c, Ac-A-R8-I-L-D-A-H-I-MB-R-aMeL-W-NH2] | 500 to 5000 nM |
| CC[C@H](C)[C@@H]1NC(=O)[C@H](Cc2c[nH]cn2)NC(=O)[C@H](C)NC(=O)[C@H](CC(=O)O)NC(=O)[C@H](CC(C)C)NC(=O)[C@H]([C@@H](C)CC)NC(=O)[C@](C)(NC(=O)[C@H](C)NC(C)=O)CCCCCCC=CCOC(=O)N2CC[C@@](C(=O)N[C@@H](CCCCNC(=N)N)C(=O)N[C@H](C(=O)N[C@@H](Cc3c[nH]c4ccccc34)C(N)=O)C(C)C)(C2)NC1=O [FP0634c, Ac-A-R8-I-L-D-A-H-I-MB-hArg-V-W-NH2] | < 100 nM |
| CC[C@H](C)[C@@H]1NC(=O)[C@H](Cc2c[nH]cn2)NC(=O)[C@H](C)NC(=O)[C@H](CC(=O)O)NC(=O)[C@H](CC(C)C)NC(=O)[C@H]([C@@H](C)CC)NC(=O)[C@](C)(NC(=O)[C@H](C)NC(C)=O)CCCCCCC=CCOC(=O)N2CC[C@@](C(=O)N[C@@H](CCCCN)C(=O)N[C@H](C(=O)N[C@@H](Cc3c[nH]c4ccccc34)C(N)=O)C(C)C)(C2)NC1=O [FP0635c, Ac-A-R8-I-L-D-A-H-I-MB-K-V-W-NH2] | 100 to 500 nM |
| CC[C@H](C)[C@@H]1NC(=O)[C@H](Cc2c[nH]cn2)NC(=O)[C@H](C)NC(=O)[C@H](CC(=O)O)NC(=O)[C@H](CC(C)C)NC(=O)[C@H]([C@@H](C)CC)NC(=O)[C@](C)(NC(=O)[C@H](C)NC(C)=O)CCCCCCC=CCOC(=O)N2CC[C@@](C(=O)N[C@@H](CCCCNC)C(=O)N[C@H](C(=O)N[C@@H](Cc3c[nH]c4ccccc34)C(N)=O)C(C)C)(C2)NC1=O [FP0636c, Ac-A-R8-I-L-D-A-H-I-MB-lmeK-V-W-NH2] | 100 to 500 nM |
| CC[C@H](C)[C@@H]1NC(=O)[C@H](Cc2c[nH]cn2)NC(=O)[C@H](C)NC(=O)[C@H](CC(=O)O)NC(=O)[C@H](CC(C)C)NC(=O)[C@H]([C@@H](C)CC)NC(=O)[C@](C)(NC(=O)[C@H](C)NC(C)=O)CCCCCCC=CCOC(=O)N2CC[C@@](C(=O)N[C@@H](CCCNC(=N)N(C)C)C(=O)N[C@H](C(=O)N[C@@H](Cc3c[nH]c4ccccc34)C(N)=O)C(C)C)(C2)NC1=O [FP0639c, Ac-A-R8-I-L-D-A-H-I-MB-ADMA-V-W-NH2] | < 100 nM |
| CC[C@H](C)[C@@H]1NC(=O)[C@H](Cc2c[nH]cn2)NC(=O)[C@H](C)NC(=O)[C@H](CC(=O)O)NC(=O)[C@H](CC(C)C)NC(=O)[C@H]([C@@H](C)CC)NC(=O)[C@](C)(NC(=O)[C@H](C)NC(C)=O)CCCCCCC=CCOC(=O)N2CC[C@@](C(=O)N[C@@H](CCCNC(=NC)NC)C(=O)N[C@H](C(=O)N[C@@H](Cc3c[nH]c4ccccc34)C(N)=O)C(C)C)(C2)NC1=O [FP0640c, Ac-A-R8-I-L-D-A-H-I-MB-SDMA-V-W-NH2] | < 100 nM |
| CC[C@H](C)[C@@H]1NC(=O)[C@H](Cc2c[nH]cn2)NC(=O)[C@H](C)NC(=O)[C@H](CC(=O)O)NC(=O)[C@](C)(CC(C)C)NC(=O)[C@H]([C@@H](C)CC)NC(=O)[C@](C)(NC(=O)[C@H](C)NC(C)=O)CCCCCCC=CCOC(=O)N2CC[C@@](C(=O)N[C@@H](CCCNC(=N)N)C(=O)N[C@H](C(=O)N[C@@H](Cc3c[nH]c4ccccc34)C(N)=O)C(C)C)(C2)NC1=O [FP0644c, Ac-A-R8-I-aMeL-D-A-H-I-MB-R-V-W-NH2] | 100 to 500 nM |
| CC[C@H](C)[C@@H]1NC(=O)[C@H](Cc2c[nH]cn2)NC(=O)C(C)(C)NC(=O)[C@H](CC(=O)O)NC(=O)[C@H](CC(C)C)NC(=O)[C@H]([C@@H](C)CC)NC(=O)[C@](C)(NC(=O)[C@H](C)NC(C)=O)CCCCCCC=CCOC(=O)N2CC[C@@](C(=O)N[C@@H](CCCNC(=N)N)C(=O)N[C@H](C(=O)N[C@@H](Cc3c[nH]c4ccccc34)C(N)=O)C(C)C)(C2)NC1=O [FP0645c, Ac-A-R8-I-L-D-Aib-H-I-MB-R-V-W-NH2] | < 100 nM |

target: T2, full-length beta-catenin; assay: competition FP; NB = no binding detected; conditions: not given
Protocol: In some embodiments, a competition fluorescence polarization assay is used to assess binding of provided compounds to beta-catenin. In an exemplary procedure, solutions of provided compounds, e.g., provided stapled peptides, were prepared in a buffer (e.g., 50 mM Tris pH 8.0, 250 mM NaCl, 2% glycerol, 0.5 mM EDTA, 0.02% w/v sodium azide) using a 3-fold serial dilution from 5 µM. Probe solution (15 nM full-length ß-Catenin, 20 nM FITC labeled peptide in buffer) was prepared and incubated for a period of time, e.g., 5 minutes, and the a volume, e.g., 40 µL per well plated in suitable plate, e.g., a black polystyrene 384-well plate (Corning). Equal volume of the serial diluted peptide was added to the plate and incubated protected from light for 15 minutes prior to read. Reads were performed on a Spectramax M5 (Molecular Devices) in duplicate. Suitable probe was FITC-PEG1-PQ-S5-ILD-S5-HVRRVWR (SEQ ID NO: 1) (hydrocarbon staple formed by two S5 via olefin metathesis) and/or FITC-bA-PQ-S5-ILD-S5-HVRRVWR (SEQ ID NO: 3) (hydrocarbon staple formed by two S5 via olefin metathesis). […] Another peptide, FPO217c (Ac-AR_8ILDAHIM$B5$RVW (SEQ ID NO: 280), with N-terminal proline removed and valine replaced with isoleucine compared to FP0025c) was prepared.

| Molecule | binding result |
| --- | --- |
| AXILDAHAXRVW (not fully specified; Ac-A-R8-I-L-D-A-H-A-MB-R-V-W-NH2; carbamate staple R8/MB) [FP0409c] | no binding |
| Ac-A[R8]ILDAFI[MB(10)]RVW-NH2 (staple 2-9) [FP0540c] | no binding |
| Ac-A[R8]ILDA[2Pal]I[MB(10)]AVW-NH2 (staple 2-9; not fully specified; printed as Ac-A-R8-I-L-D-A-2pyr-I-MB-A-V-W-NH2) [FP0554c Isomer 1] | no binding |
| Ac-A[R8]ILDA[2Pal]I[MB(10)]AVW-NH2 (staple 2-9; not fully specified; printed as Ac-A-R8-I-L-D-A-2pyr-I-MB-A-V-W-NH2) [FP0554c Isomer 2] | no binding |
| Ac-A[R8]ILDA[2Pal]I[MB(10)]FVW-NH2 (staple 2-9; not fully specified; printed as Ac-A-R8-I-L-D-A-2pyr-I-MB-F-V-W-NH2) [FP0555c Isomer 1] | no binding |
| Ac-A[R8]ILDA[2Pal]I[MB(10)]FVW-NH2 (staple 2-9; not fully specified; printed as Ac-A-R8-I-L-D-A-2pyr-I-MB-F-V-W-NH2) [FP0555c Isomer 2] | no binding |
| Ac-A[R8]ILDA[2Pal]I[MB(10)]IVW-NH2 (staple 2-9; not fully specified; printed as Ac-A-R8-I-L-D-A-2pyr-I-MB-I-V-W-NH2) [FP0556c Isomer 1] | no binding |
| Ac-A[R8]ILDA[2Pal]I[MB(10)]IVW-NH2 (staple 2-9; not fully specified; printed as Ac-A-R8-I-L-D-A-2pyr-I-MB-I-V-W-NH2) [FP0556c Isomer 2] | no binding |
| Ac-A[R8]ILDA[2Pal]I[MB(9)]LVW-NH2 (staple 2-9; not fully specified; printed as Ac-A-R8-I-L-D-A-2pyr-I-MB-L-V-W-NH2) [FP0557c Isomer 1] | no binding |
